Laboratory results from patent US20250361297A1, “ANTI- SIGLEC-15 BINDING MOLECULES AND METHODS OF USE” (ADAPTAM THERAPEUTICS, S.L., priority 2024, published 2025).

How the values were obtained:
human Siglec-15 [1] = biological target: T1, human Siglec-15 (Homo sapiens, UniProt Q6ZMC9); experiment: Titration of full-length IgG1 antibodies on human Siglec-15 (ELISA / flow cytometry on MOLM-13 Siglec-15 cells); type: binding; conditions: full-length human IgG1, titrated from 10 μg/ml
T1 construct: expressed in transfected cells
T1 sequence (Q6ZMC9 20-328): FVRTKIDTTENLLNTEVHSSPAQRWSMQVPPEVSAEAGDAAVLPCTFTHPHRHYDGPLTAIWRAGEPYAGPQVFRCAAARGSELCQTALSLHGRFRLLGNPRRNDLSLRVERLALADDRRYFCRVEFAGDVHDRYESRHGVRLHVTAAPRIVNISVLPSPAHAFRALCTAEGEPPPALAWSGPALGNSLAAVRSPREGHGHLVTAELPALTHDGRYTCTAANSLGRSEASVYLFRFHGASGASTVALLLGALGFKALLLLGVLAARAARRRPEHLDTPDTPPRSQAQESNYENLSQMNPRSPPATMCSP
Experimental: The binding efficacy of the converted full-length IgG1 anti-Siglec-15 antibodies was then evaluated using both ELISA and flow cytometry. By immobilizing the antigen and titrating the antibodies starting at a concentration of 10 μg/ml, binding kinetics were determined via ELISA, using an anti-human IgG Fab-specific secondary antibody for detection. Palivizumab served as the negative control in these assays (FIG. 8A). Complementary to the ELISA, flow cytometry assays provided insight into the binding behavior of the antibodies on the cell surface. […] From these assays, EC50 values were calculated, offering a quantitative measure of the antibodies' affinity towards Siglec-15, and leading to the selection of 7 unique hits (Table 10).
For the ELISA, antigens were immobilized on high-binding plates, and the full-length IgG1 anti-Siglec-15 antibodies were titrated beginning at a concentration of 10 μg/ml. […] Optical densities were measured to generate binding curves from which EC50 values were derived. […] Flow cytometric analysis was conducted, and fluorescence intensity was used to calculate EC50 values, providing a quantitative assessment of the antibodies' cell surface binding efficacy. […] Antibodies were titrated starting at a concentration of 10 μg/ml and detected with an anti-human Fc-specific secondary antibody to detect bound primary antibodies. […]

human Siglec-15 [2] = biological target: T1, human Siglec-15; experiment: Competitive flow cytometry assay with benchmark antibodies; type: binding
Experimental: Epitope mapping assay by Flow cytometry: Competition with benchmark mouse IgG antibodies: 50,000 cells/well of THP-1 S15 OE were added to a round bottom 96 well plate, and centrifuged at 450×G for 5 minutes, and the supernatant was discarded. Human anti-siglec-15 IgG antibodies (starting at 198 nM, 3-fold serial dilution in staining buffer) were added to 100 μl of staining buffer and cells were resuspended with it and incubated for 40 minutes on ice. 100 μl of staining buffer were added to wells, centrifuged at 450× G for 5 minutes and the supernatants discarded. Benchmark mouse IgG antibodies were diluted at 33.3 nM and cells resuspended in 100 μl of the mix and incubated for 40 minutes on ice. Then, 100 μl of staining buffer were added to wells, centrifuged at 450×G for 5 minutes and the supernatants discarded. The secondary antibody anti-mouse IgG-Alexa647 was prepared at 1:200 dilution in 100 μl of staining buffer and added to each well, and cells were incubated for 40 minutes on ice. Cells were washed with 100 μl of staining buffer and centrifuged at 450×G for 5 minutes to discard the supernatant. Cells were resuspended in 150 μl of staining buffer and acquired in a flow cytometer.

mouse Siglec-15 = biological target: T2, mouse Siglec-15 (Mus musculus, UniProt A7E1W8); experiment: Titration on HEK293T cells expressing mouse Siglec-15 (flow cytometry); type: binding; conditions: titrated from 10 μg/ml
T2 construct: HEK293T cells were genetically engineered to express full-length mouse Siglec-15; expressed in transfected cells; host or cells: HEK293T
T2 sequence (A7E1W8 24-342): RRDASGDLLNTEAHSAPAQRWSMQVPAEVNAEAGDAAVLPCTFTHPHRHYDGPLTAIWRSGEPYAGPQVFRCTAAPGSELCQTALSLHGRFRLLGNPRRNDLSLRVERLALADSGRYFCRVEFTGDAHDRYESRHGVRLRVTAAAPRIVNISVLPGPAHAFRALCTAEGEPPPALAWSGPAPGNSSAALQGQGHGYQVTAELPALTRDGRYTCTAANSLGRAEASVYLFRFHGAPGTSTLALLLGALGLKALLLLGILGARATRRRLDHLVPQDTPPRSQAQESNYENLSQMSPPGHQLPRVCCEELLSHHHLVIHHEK
Experimental: Cross-species reactivity and domain-specific binding of the full-length anti-Siglec-15 antibody candidates were evaluated. The antibodies were titrated against HEK293T cells expressing mouse Siglec-15 or HEK293T cells expressing a truncated human Siglec-15 consisting solely of domain 2 (FIG. 9). […] However, the binding to mouse Siglec-15 was evident for all tested antibodies, with EC50 values calculated to rank the affinity of the antibodies.
For the ELISA, antigens were immobilized on high-binding plates, and the full-length IgG1 anti-Siglec-15 antibodies were titrated beginning at a concentration of 10 μg/ml. After washing, an anti-human IgG Fab-specific HRP-conjugated secondary antibody was applied for detection. […] Optical densities were measured to generate binding curves from which EC50 values were derived. […] Flow cytometric analysis was conducted, and fluorescence intensity was used to calculate EC50 values, providing a quantitative assessment of the antibodies' cell surface binding efficacy. […] Antibodies were titrated starting at a concentration of 10 μg/ml and detected with an anti-human Fc-specific secondary antibody to detect bound primary antibodies. The half-maximal effective concentration (EC50) was calculated for each antibody to determine its binding affinity to mouse Siglec-15. Results were analyzed and ranked based on the EC50 values.

Siglec-15 positive cells = experiment: Internalization assay (Zenon pHrodo iFL Green); type: cell-based; conditions: kinetics over 1, 2, 4, 16, and 24 hours
Experimental: Internalization assay (Zhenon pHrodo): Sufficient volumes of 4× working solution of anti-Siglec-15 antibodies (10 nM) were prepared in cell culture medium for a total of 25 μL for each well of a 96-well plate. A working solution of Zenon™ pHrodo™ iFL IgG Labeling Reagent was prepared at 30 nM and 25 μL were added to each well. The mix was incubated for 5 minutes at room temperature to allow the labeling complexes to form. 5 mL of suspension cells at 2×10^6 cells/mL in cell culture medium were prepared and 50 μL of cells were added to each well of the 96-well plate containing the mix of anti-Siglec-15 antibody and the Zenon™ labeling reagent. Cells were incubated with the labeling complex for different timepoints (1-24 hours) under standard cell culture conditions. Fluorescence was analyzed by flow cytometry.

B1: ZLA-1243-E01: fully human anti-Siglec-15 IgG1, silenced Fc, phage display; VH SEQ ID NO: 34, VL SEQ ID NO: 35 (antibody, V domains shown)
VH: QVQLVQSGGGLVQPGRSLRLSCAASGFTFDDYAMHWVRQAPGKGLEWVSGISWNSGSIGYADSVKGRFTISRDNAKNSLYLQMNSLRAEDTALYYCAKGLWPSYDLDAFDIWGQGTMVTVSS
VL: QSALTQPASVSGSPGQSITLSCTGTSSDVGAYNFVSWYQQHPGTAPKLMIYEVSNRPSGVSDRFSGSKSGNTASLTISGLQAEDEADYYCSSYTSTIPPFVFGTGTKVTVL
modifications: IgG1 silenced Fc; ZLA-1243-E01 VH; ZLA-1243-E01 VL
- EC50 (ng/mL) hS15 (human Siglec-15 [1]): 174.3 ng/mL
- inhibition of binding of A2A5C7E8 (benchmark 2) (human Siglec-15 [2]; across all concentrations (FIG. 18D)): outperformed 5G12
- inhibition of binding of 5G12 (benchmark 1) (human Siglec-15 [2]; at concentrations above 10 nM (FIG. 18C)): outperformed A2A5C7E8
- EC50 (ng/mL) mS15 (mouse Siglec-15): 84.88 ng/mL
- internalization, fold increase over isotype control (Siglec-15 positive cells): approximately 6 fold
